{"source": "patent US20110014213A1", "about": "(JURIDICAL FDN THE CHEMO SERO THERAP RES INS, published 2011)", "binders": {"B1": {"name": "MA9-413 scFv-Fc (Fc fusion)", "scFv": "EVQLVESGGGVVRPGGSLRLSCAASGFAFGDYGMSWVRQAPGKGLEWVSGINWNGGSTGYADSVKGRFTTSRDNAKNSLYLQMNSLRAEDTALYYCARDENYDILTGYYYYGMDVWGQGTTVTVSSGGGGSGGGGSGGGGSQSVVTQPPSVSAAPGQKVTISCSGSSSNIGNNYVSWYQQLPGTAPKLLIYDNNKRPSGIPDRFSASKSGTSATLGITGLQTGDEADYYCGTWDSSLTVWAFGGGTKLTVLG", "notes": "Divalent scFv-Fc with mouse IgG1 Fc, expressed in CHO-DG44; also called ANM-2; not shown: Fc region of mouse IgG1 and its junction to the scFv"}}, "key": {"[1]": {"target": "T1, hα9/mL1-EGFP (human, UniProt Q13797 30-1035)", "T1 construct": "an offset must be applied; also called L1 loop region variant of human α9-EGFP; not shown: EGFP from pEGFP-N1 vector (Clontech) fused to the C-terminal (cytoplasmic region)", "T1 chain": "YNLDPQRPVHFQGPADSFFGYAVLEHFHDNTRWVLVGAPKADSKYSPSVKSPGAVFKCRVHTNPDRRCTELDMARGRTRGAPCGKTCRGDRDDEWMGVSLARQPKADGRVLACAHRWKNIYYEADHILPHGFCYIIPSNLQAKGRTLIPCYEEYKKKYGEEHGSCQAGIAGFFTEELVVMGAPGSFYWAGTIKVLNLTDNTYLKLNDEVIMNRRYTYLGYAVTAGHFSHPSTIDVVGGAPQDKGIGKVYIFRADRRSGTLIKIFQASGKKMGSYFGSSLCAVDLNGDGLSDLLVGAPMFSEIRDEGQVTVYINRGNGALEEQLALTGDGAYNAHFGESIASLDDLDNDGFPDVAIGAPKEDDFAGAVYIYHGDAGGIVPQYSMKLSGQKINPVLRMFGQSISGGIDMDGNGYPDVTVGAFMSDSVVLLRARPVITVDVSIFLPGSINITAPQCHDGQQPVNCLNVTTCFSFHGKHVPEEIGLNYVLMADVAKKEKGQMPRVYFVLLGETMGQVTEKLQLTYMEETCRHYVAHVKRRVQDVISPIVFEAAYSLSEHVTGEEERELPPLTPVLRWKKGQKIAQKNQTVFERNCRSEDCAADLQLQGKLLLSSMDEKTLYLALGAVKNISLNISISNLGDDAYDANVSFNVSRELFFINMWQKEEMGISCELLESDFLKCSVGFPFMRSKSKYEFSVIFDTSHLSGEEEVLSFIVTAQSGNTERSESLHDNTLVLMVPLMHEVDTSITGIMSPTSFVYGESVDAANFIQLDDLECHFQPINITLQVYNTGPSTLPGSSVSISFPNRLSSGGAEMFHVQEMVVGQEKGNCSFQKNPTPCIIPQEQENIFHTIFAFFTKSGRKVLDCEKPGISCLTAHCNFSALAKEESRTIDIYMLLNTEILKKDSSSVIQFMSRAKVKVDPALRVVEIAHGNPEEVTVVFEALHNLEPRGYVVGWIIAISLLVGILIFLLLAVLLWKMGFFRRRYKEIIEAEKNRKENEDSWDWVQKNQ", "experiment": "Cell ELISA on transiently expressing CHO cells", "experimental": "CHO/mα9 and CHO were seeded on a 96 well plate (costar) at 2×10⁴ cells/100 μL/well, and incubated overnight at 37° C., 5% CO₂. The medium was suctioned, and the cells were washed with PBS, and reacted with phage antibody diluted with 1% BSA/PBS. The detection was performed by using horse-radish peroxidase (HRP)-labeled anti-M13 antibody (Amersham) and TMB (SIGMA) in combination. The absorbance at wavelengths 450 nm and 650 nm was measured by a microplate reader (Molecular Devices).\nSW480/mα9, SW480/hα9 and SW480 were used as antigens, 1% BSA/PBS containing 5% FBS was used as a dilution solution, an HRP-labeled anti-mouse IgG antibody (ZYMED) was used for detection, and the rest was performed under the same conditions as in Example 4.\nNext, analysis by Cell ELISA was performed. Various cells after about 24 hr from gene transfection were collected, and seeded on a 96 well plate at 2×10⁴ cells/100 μL/well. The rest was performed under the same conditions as in Example 11."}, "[2]": {"target": "T2, mouse α4 integrin (mouse, UniProt Q00651 41-1039)", "T2 construct": "whole, on cells; Control antigen; also called CHO/mα4", "T2 sequence (looked up)": "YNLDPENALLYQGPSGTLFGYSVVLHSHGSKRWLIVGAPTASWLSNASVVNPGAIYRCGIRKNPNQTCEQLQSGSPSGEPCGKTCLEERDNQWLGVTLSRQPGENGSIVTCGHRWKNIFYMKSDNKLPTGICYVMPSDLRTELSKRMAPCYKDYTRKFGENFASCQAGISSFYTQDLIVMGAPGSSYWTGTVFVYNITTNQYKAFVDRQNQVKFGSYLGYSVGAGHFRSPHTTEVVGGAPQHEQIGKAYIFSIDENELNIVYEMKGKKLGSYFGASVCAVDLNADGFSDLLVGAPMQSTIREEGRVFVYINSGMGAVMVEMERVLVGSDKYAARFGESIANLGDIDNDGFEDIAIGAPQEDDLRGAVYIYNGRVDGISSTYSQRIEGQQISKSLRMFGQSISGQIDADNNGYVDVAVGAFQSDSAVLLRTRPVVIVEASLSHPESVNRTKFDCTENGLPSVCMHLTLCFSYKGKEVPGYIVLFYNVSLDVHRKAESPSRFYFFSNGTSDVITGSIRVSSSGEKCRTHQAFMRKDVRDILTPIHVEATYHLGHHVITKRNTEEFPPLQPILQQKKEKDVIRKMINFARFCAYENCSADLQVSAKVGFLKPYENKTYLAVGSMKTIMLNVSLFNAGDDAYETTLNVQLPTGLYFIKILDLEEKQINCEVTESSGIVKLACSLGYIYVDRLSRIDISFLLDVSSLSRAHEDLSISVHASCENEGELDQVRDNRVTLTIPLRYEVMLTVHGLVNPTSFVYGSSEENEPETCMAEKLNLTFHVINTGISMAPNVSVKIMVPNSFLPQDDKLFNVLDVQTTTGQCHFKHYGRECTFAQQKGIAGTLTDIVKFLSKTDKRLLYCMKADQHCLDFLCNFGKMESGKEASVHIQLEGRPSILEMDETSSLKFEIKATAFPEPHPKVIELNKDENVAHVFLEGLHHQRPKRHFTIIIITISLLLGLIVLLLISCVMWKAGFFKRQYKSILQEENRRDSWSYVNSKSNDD", "experiment": "flow cytometry on CHO/mα4", "experimental": "As a result, the reactivity with mouse α9 and human α9 was confirmed. Although the reactivity with each of CHO and CHO/mα4 was also assessed in the same manner, the reactivity with mouse α4 was not observed (FIG. 6)."}}}
{"binder": "B1", "values": [{"measurement": "binding result", "setting": "[1]", "result": "binds"}, {"measurement": "binding result", "setting": "[2]", "result": "no binding"}]}
